Patent US20180017550

Legend:
[1] = biological target: Human casein kinase II (CK), cell-free expressed with C-terminal HSV epitope tag and polyhistidine tag
[2] = biological target: human protein kinase A catalytic subunit alpha, cell-free expressed with C-terminal HSV epitope tag and polyhistidine tag, P17612
[3] = biological target: human MDM2 (ubiquitin-protein ligase E3 MDM2), cell-free expressed with C-terminal HSV epitope tag and polyhistidine tag, Q00987
[4] = biological target: human p53 oncoprotein (cellular tumor antigen p53), cell-free expressed from pETBlue-2 with C-terminal HSV epitope tag and polyhistidine tag, P04637

B1: human recombinant ZAP-70 tyrosine kinase (Invitrogen Corporation) (protein)
chain: MPDPAAHLPFFYGSISRAEAEEHLKLAGMADGLFLLRQCLRSLGGYVLSLVHDVRFHHFPIERQLNGTYAIAGGKAHCGPAELCEFYSRDPDGLPCNLRKPCNRPSGLEPQPGVFDCLRDAMVRDYVRQTWKLEGEALEQAIISQAPQVEKLIATTAHERMPWYHSSLTREEAERKLYSGAQTDGKFLLRPRKEQGTYALSLIYGKTVYHYLISQDKAGKYCIPEGTKFDTLWQLVEYLKLKADGLIYCLKEACPNSSASNASGAAAPTLPAHPSTLTHPQRRIDTLNSDGYTPEPARITSPDKPRPMPMDTSVYESPYSDPEELKDKKLFLKRDNLLIADIELGCGNFGSVRQGVYRMRKKQIDVAIKVLKQGTEKADTEEMMREAQIMHQLDNPYIVRLIGVCQAEALMLVMEMAGGGPLHKFLVGKREEIPVSNVAELLHQVSMGMKYLEEKNFVHRDLAARNVLLVNRHYAKISDFGLSKALGADDSYYTARSAGKWPLKWYAPECINFRKFSSRSDVWSYGVTMWEALSYGQKPYKKMKGPEVMAFIEQGKRMECPPECPPELYALMSDCWIYKWEDRPDFLTVEQRMRACYYSLASKVEGPPGSTQKAEAACA
phosphorylation of photo-transferred protein on microarray, anti-phosphotyrosine (RC20) detection [1]: ZAP-70 does not phosphorylate CK | phosphorylation of photo-transferred protein on microarray, anti-phosphotyrosine (RC20) detection [2]: phosphorylates PKA to a very slight, nearly undetectable degree | phosphorylation of photo-transferred protein on microarray, anti-phosphotyrosine (RC20) detection [3]: Both kinases heavily phosphorylate the MDM protein | phosphorylation of photo-transferred protein on microarray, anti-phosphotyrosine (RC20) detection [4]: p53 is not phosphorylated by either kinase
